Results from patent publication US20160168251A1 (MorphoSys, published 2016).
Positions count from the first letter of the chain named.

How the values were obtained:
[1] = target: T1, human NPRA on HEK293 cells bound to ANP (human, UniProt P01160 124-151); test: cell-based or functional assay
T1 sequence: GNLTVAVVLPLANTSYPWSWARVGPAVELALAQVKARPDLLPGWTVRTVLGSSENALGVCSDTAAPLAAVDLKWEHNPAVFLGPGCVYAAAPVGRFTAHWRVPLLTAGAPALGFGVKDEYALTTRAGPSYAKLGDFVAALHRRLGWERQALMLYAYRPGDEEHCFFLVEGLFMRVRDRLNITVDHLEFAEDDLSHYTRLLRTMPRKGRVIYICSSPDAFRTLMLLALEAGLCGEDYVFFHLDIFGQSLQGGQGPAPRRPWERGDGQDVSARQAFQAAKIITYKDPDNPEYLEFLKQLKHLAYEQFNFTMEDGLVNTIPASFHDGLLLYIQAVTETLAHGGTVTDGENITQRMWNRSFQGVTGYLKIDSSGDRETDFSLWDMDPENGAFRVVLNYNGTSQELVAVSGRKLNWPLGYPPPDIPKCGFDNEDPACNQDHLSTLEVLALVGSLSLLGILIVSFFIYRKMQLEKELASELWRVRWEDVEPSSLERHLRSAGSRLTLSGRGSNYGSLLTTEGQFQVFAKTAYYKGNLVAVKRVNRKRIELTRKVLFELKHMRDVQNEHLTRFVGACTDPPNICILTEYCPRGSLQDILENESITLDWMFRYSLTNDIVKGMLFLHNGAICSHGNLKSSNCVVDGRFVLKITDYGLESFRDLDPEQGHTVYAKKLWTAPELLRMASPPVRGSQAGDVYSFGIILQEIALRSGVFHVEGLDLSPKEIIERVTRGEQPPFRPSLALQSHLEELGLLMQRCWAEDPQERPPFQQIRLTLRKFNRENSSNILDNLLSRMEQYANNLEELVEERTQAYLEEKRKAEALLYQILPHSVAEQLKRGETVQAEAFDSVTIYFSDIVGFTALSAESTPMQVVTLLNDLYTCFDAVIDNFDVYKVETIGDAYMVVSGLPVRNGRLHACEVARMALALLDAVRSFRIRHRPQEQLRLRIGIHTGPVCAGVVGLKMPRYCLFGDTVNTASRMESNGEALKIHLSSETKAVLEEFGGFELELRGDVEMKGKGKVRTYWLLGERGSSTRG
T1 sequence (peptide): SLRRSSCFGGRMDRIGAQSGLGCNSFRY

[2] = target: T1, human NPRA on HEK293 cells bound to ANP; test: FACS, HEK NPRA cells with ANP
[3] = target: T2, NPRA-Fc fusion protein bound to ANP (human, UniProt P01160 124-151); test: SPR (Biacore 3000), NPRA-Fc amine-coupled on CM5, analyte with 100 nM human ANP
T2 construct: mature; Receptor-ligand complex; 'human ANP' is stated for Biacore, plain 'ANP' for ELISA and HXMS; also called NPRA-Fc+ANP

[4] = target: T1, human NPRA on HEK293 cells bound to ANP; test: cell-based or functional assay; remark: listed apart in the source
[5] = target: T1, human NPRA on HEK293 cells bound to ANP; test: FACS, IgG4_Pro on HEK NPRA cells in the presence of 100 nM ANP
Procedure: (§1) HEK NPRA cells are detached with Accutase (PAA Laboratories GmbH, Cat. No. L11-007, Austria), harvested by centrifugation (900 rpm, 4 minutes) and resuspended in FACS buffer (PBS/3% FCS/0.02% NaN3) to a final concentration of 10⁶ cells/ml. 100 μl of the cell suspension is transferred to each well of a 96 round bottom plate (TC Microwell 96U, Nunc). […] Cells are washed in 150 μl of FACS buffer, pelleted and resuspended in 50 μl of the solution containing the primary antibody comprising a BEL extract of Fabs, a diluted BEL extract or purified antibody diluted in FACS buffer and incubated on ice for 30 min. Cells are washed again in FACS buffer and resuspended in 50 μl of FACS buffer containing the secondary antibody (R-Phycoerythrin-conjugated Affipure F(ab′)₂ Fragment Goat Anti-Human IgG, Dianova) and incubated on ice for 45 min. Cells are washed twice with FACS buffer and resuspended in 200 μl of FACS buffer for analysis in the FACS Array (BD Biosciences).

[6] = target: T1, human NPRA on HEK293 cells bound to ANP; test: FACS, HEK NPRA cells with 100 nM ANP, IgG4_Pro format
[7] = target: T3, human NPRA on HEK293 cells, without added ligand (human, UniProt P16066 33-1061); test: FACS, HEK NPRA cells without ligand
T3 construct: a signal peptide is not delimited; also called HEK NPRA cells; HEK hNPRA cells
T3 sequence: T1 sequence

[8] = target: T4, human NPRC on HEK293 cells, without added ligand (human, UniProt P17342 27-541); test: FACS, HEK NPRC cells without ligand
T4 construct: whole, on cells; also called HEK NPRC cells; natriuretic peptide receptor C
T4 sequence (looked up): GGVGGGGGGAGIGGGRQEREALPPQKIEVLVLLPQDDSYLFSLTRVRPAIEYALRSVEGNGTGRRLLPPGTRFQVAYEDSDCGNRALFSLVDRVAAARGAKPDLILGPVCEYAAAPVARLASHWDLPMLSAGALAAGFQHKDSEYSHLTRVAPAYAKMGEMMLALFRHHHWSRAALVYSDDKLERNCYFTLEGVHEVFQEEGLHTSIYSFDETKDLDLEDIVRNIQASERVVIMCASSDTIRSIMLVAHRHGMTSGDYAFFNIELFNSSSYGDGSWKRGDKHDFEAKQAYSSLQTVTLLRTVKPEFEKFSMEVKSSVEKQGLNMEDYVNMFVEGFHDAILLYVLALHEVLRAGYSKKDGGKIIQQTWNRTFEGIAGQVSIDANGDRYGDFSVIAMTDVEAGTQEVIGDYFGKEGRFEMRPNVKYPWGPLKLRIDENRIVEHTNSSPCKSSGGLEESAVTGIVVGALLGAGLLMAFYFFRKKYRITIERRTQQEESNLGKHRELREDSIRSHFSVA
Procedure: as §1

[9] = target: T5, human NPRB on HEK293 cells in the presence of CNP (human, UniProt P20594 23-1047; P23582 105-126); test: FACS, HEK NPRB cells with 100 nM CNP
T5 construct: whole, on cells;mature; also called HEK NPRB cells + 100 nM CNP
T5 sequence (P23582 105-126 limits assumed, one chain of several): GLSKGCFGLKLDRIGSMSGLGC
Procedure: as §1

[10] = target: T6, human NPRC on HEK293 cells in the presence of BNP (human, UniProt P17342 27-541; P16860 103-134); test: FACS, HEK NPRC cells with 100 nM BNP
T6 construct: whole, on cells;mature; also called HEK NPRC cells + 100 nM BNP
T6 sequence (looked up): T4 sequence (looked up)
T6 sequence (peptide, looked up): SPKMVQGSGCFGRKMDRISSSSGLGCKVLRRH
Procedure: as §1

[11] = target: T7, human NPRB on HEK293 cells, without added ligand (human, UniProt P20594 23-1047); test: FACS, HEK NPRB cells without ligand
T7 construct: whole, on cells; also called HEK NPRB cells; natriuretic peptide receptor B
T7 sequence (looked up): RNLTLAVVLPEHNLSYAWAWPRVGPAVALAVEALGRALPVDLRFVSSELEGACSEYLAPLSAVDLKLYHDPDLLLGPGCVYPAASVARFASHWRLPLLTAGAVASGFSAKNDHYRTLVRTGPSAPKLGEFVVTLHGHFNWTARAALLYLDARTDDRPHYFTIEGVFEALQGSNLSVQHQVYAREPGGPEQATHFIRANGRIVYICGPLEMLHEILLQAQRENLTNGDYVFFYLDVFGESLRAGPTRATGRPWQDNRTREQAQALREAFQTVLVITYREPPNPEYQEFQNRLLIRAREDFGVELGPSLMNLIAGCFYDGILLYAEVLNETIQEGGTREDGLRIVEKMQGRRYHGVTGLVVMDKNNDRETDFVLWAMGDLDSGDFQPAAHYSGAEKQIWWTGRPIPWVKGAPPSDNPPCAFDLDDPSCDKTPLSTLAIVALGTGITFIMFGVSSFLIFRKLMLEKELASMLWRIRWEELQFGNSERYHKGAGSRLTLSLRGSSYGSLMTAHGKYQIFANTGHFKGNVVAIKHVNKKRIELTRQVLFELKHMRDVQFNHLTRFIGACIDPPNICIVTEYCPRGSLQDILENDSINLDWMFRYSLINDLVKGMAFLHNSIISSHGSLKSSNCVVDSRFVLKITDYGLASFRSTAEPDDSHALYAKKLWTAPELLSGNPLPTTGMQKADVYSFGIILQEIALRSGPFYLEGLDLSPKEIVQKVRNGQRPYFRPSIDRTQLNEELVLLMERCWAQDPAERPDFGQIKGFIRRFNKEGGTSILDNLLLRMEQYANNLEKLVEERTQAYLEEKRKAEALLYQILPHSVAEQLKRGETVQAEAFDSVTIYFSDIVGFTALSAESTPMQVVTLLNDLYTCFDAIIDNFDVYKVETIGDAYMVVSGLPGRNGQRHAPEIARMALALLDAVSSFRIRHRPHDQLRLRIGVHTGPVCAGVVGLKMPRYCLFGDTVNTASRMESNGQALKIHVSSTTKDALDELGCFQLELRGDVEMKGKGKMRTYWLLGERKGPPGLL
Procedure: as §1

[12] = target: T8, human NPRC on HEK293 cells in the presence of ANP (human, UniProt P17342 27-541; P01160 124-151); test: FACS, HEK NPRC cells with 100 nM ANP
T8 construct: whole, on cells;mature; also called HEK NPRC cells + 100 nM ANP
T8 sequence (looked up): T4 sequence (looked up)
T8 sequence (peptide, looked up): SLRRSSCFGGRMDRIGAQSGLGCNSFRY
Procedure: as §1

B1: 5502 Fab (Fab, V domains shown)
VH: QVQLQQSGPGLVKPSQTLSLTCAISGDSVSSRSASWSWIRQSPGRGLEWLGRIYYRSKWYNDYAVSVKSRITINPDTSKNQFSLQLNSVTPEDTAVYYCARMDVPSFRYFDVWGQGTLVTVSS
VL: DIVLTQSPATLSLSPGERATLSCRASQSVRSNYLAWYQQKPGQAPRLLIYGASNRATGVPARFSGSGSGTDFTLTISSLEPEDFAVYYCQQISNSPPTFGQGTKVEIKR
Which results are given for B1?
EC50 of ANP, cGMP production in HEK NPRA cells, with 400 nM Fab [1]: 0.3 nM; factor by which the potency of ANP is enhanced (cGMP, 400 nM Fab) [1]: 10 fold

B2: 5064 IgG1 (antibody, V domains shown)
VH: B1 VH
VL: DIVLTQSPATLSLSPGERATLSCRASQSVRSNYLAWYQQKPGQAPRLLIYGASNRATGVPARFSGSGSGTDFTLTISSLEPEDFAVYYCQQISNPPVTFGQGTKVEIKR
notes: Human IgG1 format
For B2, which “EC50 (read off the curve)” value [2] is on record?
Its value is ~0.5 nM.

B3: 5591 Fab (Fab, V domains shown)
VH: B1 VH with I53T, K58H, N61Y, D62E, V65Q
VL: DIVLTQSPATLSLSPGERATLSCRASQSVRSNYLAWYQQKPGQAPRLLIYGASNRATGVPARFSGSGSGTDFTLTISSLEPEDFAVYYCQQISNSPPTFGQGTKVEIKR
What does the source list for B3?
Kd [3]: 1.16 nM; koff [3]: 0.00103 s⁻¹; kon [3]: 884000 M⁻¹ s⁻¹

B4: 5504 Fab (Fab, V domains shown)
VH: B1 VH
VL: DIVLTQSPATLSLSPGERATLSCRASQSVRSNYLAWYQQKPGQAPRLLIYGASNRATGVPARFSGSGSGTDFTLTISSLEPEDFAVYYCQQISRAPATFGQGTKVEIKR
B4 was tested. Which “EC50 of ANP, cGMP production in HEK NPRA cells, with 400 nM Fab” value (from here on “EC50 of ANP, cGMP production”) [1] did it give?
Its value is 0.3 nM.

And the “factor by which the potency of ANP is enhanced (cGMP, 400 nM Fab)” value [1]?
Its value is 10 fold.

B5: 5592 Fab (Fab, V domains shown)
VH: B1 VH with I53T, K58H, N61Y, D62E, V65Q
VL: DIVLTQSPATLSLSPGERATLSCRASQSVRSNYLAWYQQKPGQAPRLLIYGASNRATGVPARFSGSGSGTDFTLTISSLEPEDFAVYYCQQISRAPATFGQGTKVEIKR
B5 was tested. Which Kd [3] did it give?
Its Kd is 0.426 nM.

What about the koff [3] of the same binder?
Its koff is 0.000369 s⁻¹.

What about the kon [3] of the same binder?
The kon was 868000 M⁻¹ s⁻¹.

B6: 5507 Fab (Fab, V domains shown)
VH: B1 VH
VL: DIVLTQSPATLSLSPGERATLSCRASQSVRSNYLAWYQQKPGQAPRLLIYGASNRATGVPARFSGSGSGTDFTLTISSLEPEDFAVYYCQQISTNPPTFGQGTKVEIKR
B6 was tested. Which “EC50 of ANP, cGMP production” value [1] did it give?
Its value is 0.5 to 0.6 nM.

B7: 5514 Fab (Fab, V domains shown)
VH: B1 VH
VL: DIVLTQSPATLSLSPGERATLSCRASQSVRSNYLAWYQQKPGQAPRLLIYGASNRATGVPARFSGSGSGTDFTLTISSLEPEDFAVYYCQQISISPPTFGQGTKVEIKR
Which “EC50 of ANP, cGMP production” value [1] does the source give for B7 here?
The value was 0.5 to 0.6 nM.

B8: 5504 IgG4_Pro (antibody, V domains shown)
VH: B1 VH
VL: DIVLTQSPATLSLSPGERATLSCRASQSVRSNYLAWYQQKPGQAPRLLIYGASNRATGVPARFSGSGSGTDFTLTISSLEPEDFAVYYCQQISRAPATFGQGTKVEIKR
notes: Human IgG4_Pro
What does the source list for B8?
cGMP EC50 (nM), titration of the antibody on HEK NPRA cells with 200 pM ANP [4]: 1.2 nM; EC50 [5]: 0.56 nM; EC50 (read off the curve) [6]: ~0.5 nM; binding result [7]: no binding (tested: 20 nM); binding result [8]: no binding (tested: 20 nM); binding result [9]: no binding (tested: 20 nM); binding result [10]: no binding (tested: 20 nM); binding result [11]: no binding (tested: 20 nM); binding result [12]: no binding (tested: 20 nM); fold increase in the potency of ANP (cGMP, HEK NPRA cells, 200 nM IgG4_Pro) [1]: ≤ 10 fold

B9: 5513 Fab (Fab, V domains shown)
VH: B1 VH
VL: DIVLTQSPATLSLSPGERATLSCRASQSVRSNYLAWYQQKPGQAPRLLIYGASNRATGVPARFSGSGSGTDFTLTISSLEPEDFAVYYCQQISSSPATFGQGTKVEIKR
With B9 as the binder, how does the “EC50 of ANP, cGMP production” value [1] read?
Its value is 0.5 to 0.6 nM.
